Data on twelve molecules can be found in patent US20160041182A1 (Janssen / Centocor, published 2016).

T1: mouse IL-17A (mouse, UniProt Q62386 26-158, limits assumed)
T1 construct: In SPR it was injected in solution, and no biotinylation is mentioned there; also called mIL-17A; mIL17A
T1 sequence (looked up): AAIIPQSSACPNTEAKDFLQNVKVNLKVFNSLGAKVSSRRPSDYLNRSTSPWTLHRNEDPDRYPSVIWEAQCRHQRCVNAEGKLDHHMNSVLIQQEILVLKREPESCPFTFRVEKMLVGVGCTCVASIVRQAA

B1: TP1KR9P62-D3 (designed binder)
chain: MLPAPKNLVVSRVTEDSARLSWTAPDAAFDSFAIEYFEDWWSGEAIVLTVPGSERSYDLTLKPGTEYSVSIRGVKGGYPSSPLSAIFTT
notes: also called TCL14-His fusion protein
B2: TP1KR9P61-G4 (designed binder)
chain: MLPAPKNLVVSRVTEDSARLSWTAPDAAFDSFAIEYFEDWWSGEAIVLTVPGSERSYDLTGLKPGTEYAVSIRGVKGGYPSAPLSAIFTT
notes: as for B1
B3: TP1KR9P62-E3 (designed binder)
chain: B2 chain with A33G, W40Y, S42T
notes: as for B1
B4: TP1KR9P62-D8 (designed binder)
chain: B2 chain with A69G, Y79L, P80A, A82P
notes: as for B1
B5: TP1KR9P62-C6 (designed binder)
chain: B2 chain with Y57C, A69S, S71T, A82S
notes: as for B1
B6: TP1KR9P61-A2 (designed binder)
chain: B2 chain with Y79M
notes: as for B1
B7: TP1KR9P62-A2 (designed binder)
chain: B2 chain with P5L, R19H, F37S, W40Y, S42L, A69G, A82P
notes: as for B1
B8: TP1KR9P62-D4 (designed binder)
chain: B2 chain with A33G, E35I, S42A, A69G, Y79P, A82R
notes: as for B1
B9: TP1KR9P61-E2 (designed binder)
chain: B2 chain with Y79M, A82P
notes: as for B1
B10: TP1KR9P61-A7 (designed binder)
chain: B2 chain with A69S, A82S
notes: as for B1
B11: TP1KR9P62-H10 (designed binder)
chain: B2 chain with A69S, Y79H, A82V
notes: as for B1
B12: TP1KR9P62-C3 (designed binder)
chain: B2 chain with A69S, S71T, Y79P, A82S
notes: as for B1

Numbering of substitutions follows the chain as printed.

The first experiment concerns the target T1, mouse IL-17A. Kind of experiment: SPR (ProteOn XPR-36), clone amine-coupled on chip, mIL-17A in solution, 1:1 Langmuir fit. As for the experimental part: The affinities of select molecules binding to mIL-17A were measured using surface Plasmon resonance using a ProteOn XPR-36 instrument (Bio-Rad). Purified molecules were directly immobilized on the chip via amine coupling with varying densities (100˜300 Rus) at pH 5.0 and a flow rate of 30 μL/min for 5 minutes mIL-17A at 100 nM diluted in a 3-fold concentration series was tested for their binding to different molecules on the chip surface. The dissociation phases for all concentrations of all samples was monitored for 1˜2 hours at a flow rate of 100 μL/min depending on their off-rate. A buffer sample was injected to monitor the baseline stability and the surface was not regenerated for further use. The response data for all concentration series for each of the different surfaces of the scaffold molecules selected from the TLC14 library were globally fit to a 1:1 simple langmuir binding model to extract estimates of the kinetic (kₒₙ, koff) and affinity (KD) constants. As summarized in Table 9, affinities of the scaffold molecules specifically binding mIL-17A were at a subnanomolar range. Sequences of select mIL-17A binders are shown in SEQ ID NOS: 85-96, and the sequences of the C and F beta-strands and the CD and the FG loops in Table 10.
Consider B1, for which the Kd (as a rule, the equilibrium constant for the complex coming apart) stood at 0.554 nM; the koff (as a rule, a measure of how fast the partners let go of each other) was 6.07e-05 s⁻¹; the kon (in general, the rate constant with which the complex forms) was 110000 M⁻¹ s⁻¹.
The like results for B2 were, in that order, 0.309 nM, 5.02e-05 s⁻¹ and 162000 M⁻¹ s⁻¹.
The like results for B3 were, in that order, 0.464 nM, 5.26e-05 s⁻¹ and 113000 M⁻¹ s⁻¹.
For B4, the dissociation constant Kd was found to be 0.0389 nM, the koff came out at 1.48e-05 s⁻¹ and the kon came to 381000 M⁻¹ s⁻¹.
The like results for B5 were, in that order, 0.0212 nM, 1.2e-05 s⁻¹ and 568000 M⁻¹ s⁻¹.
For B6, the dissociation constant (Kd) came to 0.287 nM, the off-rate (koff) was found to be 3.93e-05 s⁻¹ and the kon was 137000 M⁻¹ s⁻¹.
The like results for B7 were, in that order, 0.0531 nM, 2.17e-05 s⁻¹ and 408000 M⁻¹ s⁻¹.
The like results for B8 were, in that order, at most 0.0952 nM, at most 1e-05 s⁻¹ and 105000 M⁻¹ s⁻¹.
The like results for B9 were, in that order, 0.27 nM, 3.96e-05 s⁻¹ and 147000 M⁻¹ s⁻¹.
The molecule B10 displayed a dissociation constant Kd of 0.421 nM, an off-rate (koff) of 3.46e-05 s⁻¹ and an association rate constant (kon) of 82000 M⁻¹ s⁻¹.
Molecule B11 displayed a dissociation constant Kd of 0.0482 nM, an off-rate (koff) of 2.11e-05 s⁻¹ and an on-rate constant (kon) of 438000 M⁻¹ s⁻¹.
The like results for B12 were, in that order, 0.0374 nM, 1.05e-05 s⁻¹ and 281000 M⁻¹ s⁻¹.

The target in the next experiment is T1, mouse IL-17A. Briefly: competition ELISA: purified His-tagged clone against biotinylated mIL-17A binding to coated mIL-17A receptor Fc. As for the experimental part:
An inhibition assay was performed to determine if the round 5 and 9 panning outputs against mouse IL-17A (mIL-17A) inhibited binding of mIL-17A to the mIL-17A receptor. Maxisorp plates were coated with 0.2 μg/ml mIL-17A receptor Fc fusion (R&D Systems, Minneapolis, Minn.) overnight, washed with Phosphate-Buffered Saline (PBS), pH 7.4 with 0.05% Tween-20 […] and blocked with 2% BSA, 5% Sucrose in PBS. 10 ng/ml biotinylated-mIL17A (b-mIL-17A) was added into the clarified bacterial lysates diluted 1:50 in 1% BSA in PBS, and the mixtures were incubated for 20 minutes. The blocked plates were washed and the bacterial lysates/b-mIL-17A incubations were transferred onto the plates. The plates were incubated for an additional hour, washed with PB ST, and the biotinylated protein detected with streptavidin-HRP (Jackson Immunoresearch, West Grove, Pa.) and OPD colorimetric substrate (Sigma-Aldrich, St. Louis, Mo.). Absorbance at 490 nm was read using an M5 plate reader (Molecular Devices, Sunnyvale, Calif.) and the data converted to % inhibition. Percent inhibition for mIL-17A:mIL-17 receptor binding was defined as 100−(sample/negative control×100).
Select bacterial lysates containing the scaffold molecules inhibiting the mIL-17A:mIL-17 receptor interaction were further characterized in a dose response inhibition assay using the protocol described above, except that 100 μl of purified TCL14-His (Ni-NTA) fusion proteins were used in the assays between concentrations of 10 μM to 56 pM. IC50 values were calculated from the dose response curves using a sigmoidal dose response fit.
In general terms: An ELISA detects its analyte on a solid surface through an enzyme-linked reagent.
As for B1, the IC50 – broadly, the concentration that inhibits the measured activity by half – stood at 0.0912 nM.
Same read-out and setting: for B2 the value was 0.00883 nM; for B3, 0.0642 nM; for B4, 0.427 nM.
The same measure, in the same setting: for B5 the value was 0.109 nM; for B6, 0.0339 nM; for B7, 0.261 nM.
As for B8, the IC50 is 0.242 nM.
On the same count and under the same terms, for B9 the value was 0.0428 nM.
Take B10: the IC50 worked out at 0.0558 nM.
On the same count and under the same terms, for B11 the value was 0.302 nM; for B12, 0.117 nM.
